Data from the DeepSol protein solubility set.

Assay: soluble on expression in E. coli; label from the status in PepcDB or PDB records
With “MAKGDVITLNFETFVDSDTQVKVTRLTPTDVICHRNYFYQKCFTQDGKKLLFAGDFDGNRNYYLLNLETQQAVQLTEGKGDNTFGGFISTDERAFFYVKNELNLMKVDLETLEEQVIYTVDEEWKGYGTWVANSDCTKLVGIEILKRDWQPLTSWEKFAEFYHTNPTCRLIKVDIETGELEVIHQDTAWLGHPIYRPFDDSTVGFCHEGPHDLVDARMWLVNEDGSNVRKIKEHAEGESCTHEFWIPDGSAMAYVSYFKGQTDRVIYKANPETLENEEVMVMPPCSHLMSNFDGSLMVGDGCDAPVDVADADSYNIENDPFLYVLNTKAKSAQKLCKHSTSWDVLDGDRQITHPHPSFTPNDDGVLFTSDFEGVPAIYIADVPESYKHLEHHHHHH” the “soluble on expression in E. coli” value was “soluble”. For “MAKISEIMLLQQPEQPALAIEVQTYMKGMSQAIGENFVRIDSLFKKQGEVTTDIPFVEYPDFESLTEDRIKMIIGLKSSKPLQGDEKIQSVILPARRIVVCLHRGNYNELAQLYNEMTEWIKTNGYKASGTSIEYYYSNPDVPEEEHVTRVEMPLL”, the “soluble on expression in E. coli” value was “not soluble”. In the case of “MAKKDEVGGRVLQDVFLDWAKKYGPVVRVNVFHKTSVIVTSPESVKKFLMSTKYNKDSKMYRALQTVFGERLFGQGLVSECNYERWHKQRRVIDLAFSRSSLVSLMETFNEKAEQLVEILEAKADGQTPVSMQDMLTYTAMDILAKAAFGMETSMLLGAQKPLSQAVKLMLEGITASRNTLAKFLPGKRKQLREVRESIRFLRQVGRDWVQRRREALKRGEEVPADILTQILKAEEGAQDDEGLLDNFVTFFIAGHETSANHLAFTVMELSRQPEIVARLQAEVDEVIGSKRYLDFEDLGRLQYLSQVLKESLRLYPPAWGTFRLLEEETLIDGVRVPGNTPLLFSTYVMGRMDTYFEDPLTFNPDRFGPGAPKPRFTYFPFSLGHRSCIGQQFAQMEVKVVMAKLLQRLEFRLVPGQRFGLQEQATLKPLDPVLCTLRPRGWQPAPPPPPCHHHH”, the “soluble on expression in E. coli” value is reported as “soluble”. For “MAKKKIVAVIQARMGSSRLPGKVLMTVAGKPLLEHIIDRLRRSRTLDDIVIATSDKPCDDPLVDFAQTRGVTLVRGSEDNVLLRFNKAAEEVDADVIIRVTGDAPLVDPEVMDRLVRTLLQEGAEYCTIEAGINSIHEGFCTFTRGALKRLMTEAPDDPVAIEHVTAYFIAHPDKFHIARIPVGNEHRFKGARLSVDTPADVQFFDELYRLLGVPAGDADIADVVRLLRNNPHLLQINQHVYQKKATDRSHKVLIRCDGDSRTGLGHVVRCLALAGELREKQGCGIIFAMASGEPGMKMVRQADFPLERQEDADEGEWMDGLISRHHPDVLILDIRNDLPVEKVDSWREDGILVVGIDDPTPRRLAADLLFYPPIPQISELNWNNFNGEICSGWEWVLLRKQFCAPCPPRNNNPPALLLTMGGSDPANFTVRVLRVLDELQNDFETIVVIGAGFVHEEDLQQFLSQARRHYRIEREVSDMASLMRQADLAIASFGVTAYELAASGVPAVYLCLTPDHARSASKFVDDRLAFSCGVLEECSNERIIESTLSLLDSRELRHEVGRRACATVDGYGATRIATKIVEKLERMHSSHGLEHHHHHH”, the “soluble on expression in E. coli” value was “not soluble”. With “MAKKKKEILFCDYYEDWVETYKVGAIEDVTLNKYYVAARQLRDICPKLLMSDFSRKDYQLIMNEYGKTHEKQTAKDFHHHIKAAILDAYHDGLLKSDPTYRAVIKGKELEHHHHHH” the “soluble on expression in E. coli” value was “not soluble”. With “MAKKKNVSVISVEKPTWFPLTDETGAFPVYGAPITIGTAVSIKPDVTTETTPDYGDSVVQDQYVAFGGAEVTLETNGYQNEVLAEITGGKKLKGGVLRSADDIASDGAFAYRRRKSNGKYRYTIFYKGKFALTSDETSTLEGSSVSYTHPEWTGSFVDVPGLGYMYSVDEDDEGVDLEMIKNWFTEVMDPRKENTTAVTGVTLDQTELNLKVGQTATLTPTITPDNASNKKYQFRSESEAIGTVTPIQGKVTAVGEGTTEIVVTTEDGNFTAKCTLNVTTAD” the “soluble on expression in E. coli” value was “not soluble”. In the case of “MAKKPSKKKVKRQVASGRAYIHASYNNTIVTITDPDGNPITWSSGGVIGYKGSRKGTPYAAQLAALDAAKKAMAYGMQSVDVIVRGTGAGREQAIRALQASGLQVKSIVDDTPVPHNGCRPKKKFRKAS”, the “soluble on expression in E. coli” value is reported as “soluble”. For “MAKKSSGSAPSRASGRSGKQTTHFQVVHDATKHRAKRSKSSKSGDSKSSSQDASVKKILDHKLFNTHYVEYNVLLSNGRKMMATEFDFEGKKEQKLLADYKYKITNQDDDPDEDFAVEKIIAHRFSGKKNKPLFLVMWRGYPNPVSHSEMWENELSNCKDLLEAYKDSHDMKPPPVKKSNKKKGSKKSPKKSAKSKDDDSSDEEEEEEVKEKSPKKSSKSTKRAASDDDEEEEPVATKKSKKSKRAETPEEEDDEEEEVVKTPKKTKKSKRAETPEEEDEVEEEVVKTPKKSKSSKSPKKSKRAETSDEEDEDEEDEKEAPKSSKKQEKAKSSKRVAEDSGNEEEDQDNTSGSGSEGEEEEEEASSNGKRKSRH”, the “soluble on expression in E. coli” value was “not soluble”. For “MAKKTSSKGKLPPGPFPLPIIGNLFQLELKNIPKSFTRLAQRFGPVFTLYVGSQRMVVMHGYKAVKEALLDYKDEFSGRGDLPAFHAHRDRGIIFNNGPTWKDIRRFSLTTLRNYGMGKQGNESRIQREAHFLLEALRKTQGQPFDPTFLIGCAPCNVIADILFRKHFDYNDEKFLRLMYLFNENFHLLSTPWLQLYNNFPSFLHYLPGSHRKVIKNVAEVKEYVSERVKEHHQSLDPNCPRDLTDCLLVEMEKEKHSAERLYTMDGITVTVADLFFAGTETTSTTLRYGLLILMKYPEIEEKLHEEIDRVIGPSRIPAIKDRQEMPYMDAVVHEIQRFITLVPSNLPHEATRDTIFRGYLIPKGTVVVPTLDSVLYDNQEFPDPEKFKPEHFLNENGKFKYSDYFKPFSTGKRVCAGEGLARMELFLLLCAILQHFNLKPLVDPKDIDLSPIHIGFGCIPPRYKLCVIPRSHHHH”, the “soluble on expression in E. coli” value was “soluble”. For “MAKRPSTSKNPAEDDELIIDECRRKLDDDESNDVGAYFEDDNQQGTSYRTPFMPSHLGLIQDQSPDLTMKDLFNRKRSRPQSTGFIDHSQARYYDRYKQQEYTRRNDFMKYCHVCRKKTVGKLRVLPGDLRMRKVWILRSNLDEERSAELWLREMACEGSHGGEFCEAHFPAGSQHMKGNQLIPLDVRPEEGRHSVVEDIQFDFDAIHLQCVFCGRDGPLATMLPFIRNRAKRLRWIEQLASGNETYKNRLLHALRGGVTQFLCDYHISDSSFEINGFGEWRLLKNALPDPRLVASDKRGERKYLVDKCRDEMFWERAMWKSADLLSQNGTADDEDIIVGDDIRQFLTNSVPSEAEQVLHPILQIKQNVEKKLNEADLQPGTSGTSGESNATADNLKIGISEEGVEYSDDSDEENELIEKMGDIPYSKRLCQVCSAVEPIGNEFPNNFPYKFSIRTWPFDECRHKKWLEIMDWPPEFEESMKTLWQKRKTEGALSDSYHFCPINVCQSHLDFRQLPERMEEWHQTFCLLCDTCMSDKSFLVGIPHNFETRTKWANSLFPVKEGNKFQLKKISWLRRRFLRSKPTRYRICVYHFNRKAFQVNQDDKIVLDAEALPLPIDSDDFDLTPRGPNSVCKCVLCDDWKKVEDMVPFRAPHSEAERSFLIDIVIHSDKMTIKKALASLAKTNRPALICNIHFPDGIDPFSIIAERRLMYGVQSECVLCAHANDCTAMIPFPGPDDEKLRTKWINSMCREPWIYRYLSTRLEKPGRHYLCASHFNRNSLRYHAGLGLWRRAAACPVLACTTDEERQEVWDLSKSQPLYHPLILETFDDNGSGRLDYDDVLNFLGTERMRQIETELNFHGRNDSLLRRENRKKNTGRSFYADMPNIYEHGELQEVEDQMEGEEEEVVQEECIIYEEEHHLDEAEELEVIEEEEVVEEIVEQVVDDGVVVGEEM”, the “soluble on expression in E. coli” value was “not soluble”. In the case of “MAKTLYEKLFDSHIVYEAEGETPILYINRHLIHEVTSPQAFDGLRVANRQVRQVNKTFGTMDHSISTQVRDVNKLEGQAKIQVLELDKNTKATGIKLFDITTKEQGIVHVMGPEQGLTLPGMTIVCGDSHTATHGAFGALAFGIGTSEVEHVLATQTLKQARAKSMKIEVRGKVASGITAKDIILAIIGKTTMAGGTGHVVEFCGEAIQDLSMEGRMTVCNMAIEMGAKAGLIAPDETTFAYLKDRPHAPKGKDWEDAVAYWKTLKSDDDAQFDTVVTLEAKDIAPQVTWGTNPGQVISVNETIPNPQEMADPVQRASAEKALHYIGLEAGTNLKDIKVDQVFIGSCTNSRIEDLRAAAAVMKGRKKADNVKRILVVPGSGLVKEQAEKEGLDKIFIAAGAEWRNPGCSMCLGMNDDRLGEWERCASTSNRNFEGRQGRNGRTHLVSPAMAAAAGVFGKFVDIRDVTLN”, the “soluble on expression in E. coli” value is reported as “not soluble”. For “MALAEADDGAVVFGEEQEALVLKSWAVMKKDAANLGLRFFLKVFEIAPSAKQMFSFLRDSDVPLEKNPKLKTHAMSVFVMTCEAAAQLRKAGKVTVRETTLKRLGATHLRYGVADGHFEVTGFALLETIKEALPADMWSLEMKKAWAEAYSQLVAAIKREMKPDA”, the “soluble on expression in E. coli” value was “soluble”. With “MALAMNRSITAITVTHNSAHTVRGALARLPPGVEIVCVDNASTDDLSTALSDLAVHRIDNPVNLGFGRACNIGAAAATGEYLLFINPDVRLGTDAVDALLQAAERYPNCGVFVPRTNTVDGRLWFREESEIDRLSGVSLPTRIRQVWGDCCVRFVNGGVFMIKRTLFLDTGGFDEDIFLYFEDDDLSYRLLQRDEPMILVSGAHAVHDIGTSVAQSTRSRIFRYRSKMRSEIHLRKKYGIAYSPFVDILRYSTKIGFYCLTLNRNRLINSLGRLIGIFDSILDRSRANRNGGYVALEHHHHHH” the “soluble on expression in E. coli” value was “not soluble”. With “MALDANDLLPPEKAFVPELAVADDGVNVRFRIADGYYMYQAKIVGKTNPADLLGQPSFSKGEEKEDEFFGRQTVYHHEAQVAFPYAKAVGEPYKLVLTYQGSAEAGVCYPPVDTEFDIFGNGTYHPQT” the “soluble on expression in E. coli” value was “soluble”. For “MALETPTPGPPREGQSPASQAGTQHPPAQATAHSQSSPEFKGSLASLSDSLGVSVMATDQDSYSTSSTEEELEQFSSPSVKKKPSMILGKARHRLSFASFSSMFHAFLSNNRKLYKKVVELAQDKGSYFGSLVQDYKVYSLEMMARQTSSTEMLQEIRTMMTQLKSYLLQSTELKALVDPALHSEEELEAIVESALYKCVLKPLKEAINSCLHQIHSKDGSLQQLKENQLVILATTTTDLGVTTSVPEVPMMEKILQKFTSMHKAYSPEKKISILLKTCKLIYDSMALGNPGKPYGADDFLPVLMYVLARSNLTEMLLNVEYMMELMDPALQLGEGSYYLTTTYGALEHIKSYDKITVTRQLSVEVQDSIHRWERRRTLNKARASRSSVQDFICVSYLEPEQQARTLASRADTQAQALCAQCAEKFAVERPQAHRLFVLVDGRCFQLADDALPHCIKGYLLRSEPKRDFHFVYRPLDGGGGGGGSPPCLVVREPNFL”, the “soluble on expression in E. coli” value was “soluble”. In the case of “MALFGKKSSDSSKSVAVPKAFTIQIDPSKFNLATKPSGPVHEQLETLKQKLTKLSSNVENNLMLVIRASTKKDKALASSAFEFDERYIQKGKFEVEYLTLAYLNFQQLDEADRKTVAHARMILKELERIAQFCLNIADKTEYIQLANIQVLHKDEYDLKLMGDDTAEMIKKAVEAFVSGNSKHATETLDMMKKIDDLYQKAVAKLKAEVNDSNIINSTGILSVVEHVHTCAEISCAIARHFC”, the “soluble on expression in E. coli” value is reported as “soluble”. For “MALHTVLIILSLLPMLEAQNPEHANFTIGEPITNETLSWLSDKWFFMGAAFRKLEYRQAIQTMQSEFFYLTTNLINDTIELRESQTIGDQCVYNSTHLGFQRENGTFSKYEGGVETFAHLIVLRKHGAFMLAFDLKDEKKRGLSLYAKRPDITPELQEVFQKAVTHVGMDESEIIFVDWKKDRCGQQEKKQLELGKETKKDPEEGQA”, the “soluble on expression in E. coli” value was “soluble”. For “MALNNVSLSSGDQRSRVAYRSSHGDLRPRASALAMVSGDGFLVSRPEAIHLGPRQAVRPSVRAESRRVDGGGRSPREPDGRGRSRQARFSPYPIPAVEPDLLRSVLQQRLIALGGVIAARISV”, the “soluble on expression in E. coli” value was “soluble”. For “MALPGNYAPEVLLPQIAEINARIYADVNNGVYKAGFATRQSVYEKAVMVLFRCMDELEQLLSRQRYLIGNCITEADWRIFTTLIRFDPVYHGHFKCNLRRLVDYPNLWAYTRELYQWPGVAETVNMQHIKEHYYRSHPTINLEHHHHHH”, the “soluble on expression in E. coli” value was “not soluble”.
